Data reported in the supplement of paper PMC12764529.
± gives the half width of the 95% confidence interval.

Columns and labels:
[1] = folding stability dG unfold from chymotrypsin proteolysis; higher = more stable
Summary of the method: (§1)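 Only designs with AlphaFold2 dimer inter-PAE above 15 were retained; each was a mini-protein under 80 residues with no cysteine, in a PA-tagged cDNA display construct. After digestion with trypsin and chymotrypsin and sequencing, K50 was inferred by Bayesian fitting of counts, and unfolding free energy was derived per protease or combined against a sequence-predicted unfolded-state K50 and a shared folded-state K50.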

[2] = folding stability dG unfold (combined trypsin and chymotrypsin); higher = more stable
Summary of the method: as §1

[3] = folding stability dG unfold from trypsin proteolysis; higher = more stable
Summary of the method: as §1

Sequence	folding stability dG unfold [1]	folding stability dG unfold [2]	folding stability dG unfold [3]
SMGVKIEIDKEIIEKAIEEGKTFEADAKIKIEAYNPKTGKKIAEAEKIVKIRLEIEPPKAEPDPETGKPESA [r9_396_TrMRF]	1.5 ± 0.276 kJ/mol	2.65 ± 0.544 kJ/mol	2.77 ± 0.297 kJ/mol
SMIDIEISTDPNNPNVITVTAKYPDPEKAKEYLEKKLKEEYDVISISYEYEPENPIITFTFTYASPEKPQSA [r9_1120_JUSTAS]	13 ± 0.218 kJ/mol	11.7 ± 0.628 kJ/mol	9.9 ± 0.326 kJ/mol
SMIIKPGMSLEEVLNKIKELLKKGEKYKITVINKETGKVYEFEIDVKTKKIKVKEVTLENGEVIIKIEKVSA [r9_1059_TrROS_Hall]	14.8 ± 0.293 kJ/mol	12.8 ± 0.502 kJ/mol	8.07 ± 0.192 kJ/mol
SMIIPPELGFEEAVELIKELLEPEKTYLVVTGDPETGTLSVARLDPETGEVEVEPLPTTEGESFVAVFEISA [r9_1059_TrMRF]	5.45 ± 0.247 kJ/mol	5.29 ± 0.293 kJ/mol	4.57 ± 0.184 kJ/mol
SMIKIKLKNGMEITIEKTPEKVKIKLKATGKEIELPLEELENMTEEELLEKLRKLAEELGMEVEEVEIEPSA [r9_1211_TrROS_Hall]	14.4 ± 0.347 kJ/mol	14.1 ± 0.46 kJ/mol	13.3 ± 0.586 kJ/mol
SMIKIKVVEKKDGKYKIKIENKKTGKTFEFEFDTKEEAEEAEKNPGKTIYLSEEALKKLKKENITKVEKVSA [r9_390_TrROS_Hall]	5.17 ± 0.364 kJ/mol	4.63 ± 0.628 kJ/mol	1.85 ± 0.272 kJ/mol
SMIKPGDTVTIVLKVKPEDLEKIREAVEELLRELFPDVEVESVEVNPEEENYVVITVRVDGKEITLVIERSA [r9_1079_TrROS_Hall]	9.463 ± 0.0879 kJ/mol	10.5 ± 0.172 kJ/mol	11.6 ± 0.201 kJ/mol
SMITIEINVGNKKYTVEIVPEKGIIKITDPNGTPIGEGEIKPDSIDITLTKPNTDETYKFTFPIPPESLPSA [r9_963_JUSTAS]	12.7 ± 0.502 kJ/mol	11.3 ± 0.753 kJ/mol	9.57 ± 0.418 kJ/mol
SMIVKSEPVKDPNSDLTTTPVTITLPVREYDPSLGVTRERLVTINGTVITTLLEKHPDGSVISTVDVLPASA [r9_1058_JUSTAS]	2.89 ± 0.163 kJ/mol	1.79 ± 0.205 kJ/mol	-0.74 ± 0.109 kJ/mol
SMIVTEEVSYDPSTNTRTITKTVYEKDENGNLVPVETEVVVEPVEEPPPYVPVIKVPPSNKTPEDRVKVLSA [r9_888_JUSTAS]	4.28 ± 1.13 kJ/mol	3.27 ± 1.46 kJ/mol	-0.147 ± 0.962 kJ/mol
SMKDATSTSIGSRTYTYPNTDPSVSPEELKEKVIEEIKKEPELKAVEITVEVDPSTGTVTITINLTKLVKSA [r9_1001_JUSTAS]	7.35 ± 0.226 kJ/mol	6.29 ± 0.322 kJ/mol	4.75 ± 0.0879 kJ/mol
SMKIEVSGGNVTVEMYMWRRKKERDPDDPGKERDQPEPMPQTHTIDPNDPEAAKKFLDKFPPGFRPEIHDSA [r9_476_TrROS]	0.375 ± 1.8 kJ/mol	1.87 ± 1.05 kJ/mol	2.48 ± 0.795 kJ/mol
SMKIKIKVETNPNGEKKIEIEIELKEEDIEFDEGMTLEERKEKLRELAEELAKKLKEEGKEVKIVEIEVESA [r9_751_TrROS_Hall]	9.48 ± 0.201 kJ/mol	8.8 ± 0.711 kJ/mol	7.51 ± 0.28 kJ/mol
SMKIKIPVLIKVDPSETIEEVLEKVKEIAEEIAKFLESKGGPVEVKADVEPIPEIDYVIVTVEAYVPEEASA [r9_1161_TrMRF]	7.53 ± 0.343 kJ/mol	6.45 ± 0.711 kJ/mol	6.39 ± 0.314 kJ/mol
SMKIKIYVAPPGYVVVRITGPNGFYIPIPAKDPDEAKAKLEELINNLQERNGHKPDIDVVPFPPGQEIGDSA [r9_786_TrROS]	9.3 ± 0.418 kJ/mol	8.08 ± 0.628 kJ/mol	5.81 ± 0.184 kJ/mol
SMKIPGMSAKEKLRKAIEALLEEAEKKGIKEITIKIYNKKTKKPIKEIKFKSKEELLKKIEEGDEVEIEFSA [r9_718_TrROS_Hall]	7.17 ± 0.255 kJ/mol	7.65 ± 0.544 kJ/mol	8.77 ± 0.188 kJ/mol

Sequence	folding stability dG unfold [1]	folding stability dG unfold [2]	folding stability dG unfold [3]
SMKIPVKTNDPEALKELLNKIKEILEKAKEKGYEIFPIPIILDNGKEIIFPIDPNDKIEEVIKKIEEALKSA [r9_127_TrMRF]	5.77 ± 0.406 kJ/mol	8.44 ± 0.962 kJ/mol	11.3 ± 0.628 kJ/mol
SMKITEIEPDGDGTLEIEIPVEAPPGMDPDEVQIYVMSDDGIRHVRITPNGTVEITIENIPDIRIYIFVHSA [r9_722_TrROS]	10.3 ± 0.305 kJ/mol	9.45 ± 0.331 kJ/mol	7.51 ± 0.213 kJ/mol
SMKITTDPVNKTISATFPPGTDPLAETQKIVDEVKKKENSGDITITFSTGNTTINYTLGTNTVTTTPAGTSA [r9_224_JUSTAS]	-1.47 ± 0.795 kJ/mol	-0.399 ± 0.402 kJ/mol	-0.241 ± 0.264 kJ/mol
SMKIVEVEVFEDPETGKLVVIVKLDGEEVVEVEEGEKVEIEVEPGDTLLVFVVDAETGEIKEEKEIKVEESA [r9_209_TrROS_Hall]	5.02 ± 0.502 kJ/mol	4.66 ± 0.669 kJ/mol	2.26 ± 0.502 kJ/mol
SMKIVIVKNKDGTVIVRITFPNGEEITITAKTEEEAKKAIEELIKKLQEKYNIKIKIEVKPVKPGEVIEESA [r9_786_TrROS_Hall]	11.9 ± 0.335 kJ/mol	12.2 ± 0.628 kJ/mol	12.2 ± 0.389 kJ/mol
SMKIYKTKEEAEKAAKETGKKVIVIKKGMSLEELLELLKKLKGLKEGQKVILVIQNEDGETYVIVLEIKPSA [r9_314_TrROS_Hall]	6 ± 0.544 kJ/mol	7.3 ± 0.711 kJ/mol	7.6 ± 0.414 kJ/mol
SMKKKVVVKAKIEKIRPDGGKEELEEVFVMEVSPDDPEEIKAAIDEAIEALKKAYPNIKKIEIEEVIIEDSA [r9_436_TrMRF]	14.1 ± 0.879 kJ/mol	15.9 ± 1.51 kJ/mol	15.9 ± 1 kJ/mol
SMKKTIIIKVKKEDMTPEEIAKKLAELGYEVEIVDVEYDEETEEVYITVEIYDENGELIEKIEIKLPRKDSA [r9_879_TrROS_Hall]	4 ± 0.711 kJ/mol	3.83 ± 1.76 kJ/mol	3.45 ± 0.669 kJ/mol
SMKKTYTFPVTLVPKDGKASLTVNWYAPDGTSLGTQTKSASAEGNTVTATVTVTVDAPPGAKIPSITVNASA [r9_292_JUSTAS]	1.98 ± 0.218 kJ/mol	1.48 ± 0.159 kJ/mol	0.381 ± 0.172 kJ/mol
SMKKVLIVTPNPEINPEEVVKALKEKGFKEIKVFSTPEELKEALPEYDIVIIEENGKLYIKYIPPGKLAKSA [r9_750_TrMRF]	7.49 ± 0.502 kJ/mol	5.64 ± 1.13 kJ/mol	1.4 ± 0.711 kJ/mol
SMKLIGVEEFENAKAVLFEKEDKYIKLVFIPEDIPEGEEIYYIKVFEGDEIIEEKAVKPEEIEEAIKEAGSA [r9_57_TrMRF]	2.69 ± 0.879 kJ/mol	1.79 ± 0.879 kJ/mol	0.00539 ± 0.502 kJ/mol
SMKLIGYDPVTGKPVTLTFDPETKTVTVTHPNGEKITAPAESITFDPETGTVTITLPTKTVTFYVPPEANSA [r9_325_TrMRF]	20.6 ± 0.502 kJ/mol	20.2 ± 0.837 kJ/mol	16.3 ± 1.13 kJ/mol
SMKPGDWKWIMFRFPDAENMEITIPIPLPPGYRVWFFFMNGERHEIPAGQEIKFKMPPGEPMWMMIWIWKSA [r9_79_TrROS]	19.7 ± 0.418 kJ/mol	17 ± 1.09 kJ/mol	15.3 ± 0.46 kJ/mol
SMKPGEVKELTLKLTIPVKPGEITVTLVLKLEDGRYVVVESRATVKEDGTIEIEVKIRVYDPKTNEWKELSA [r9_349_TrROS_Hall]	13.7 ± 0.753 kJ/mol	12.1 ± 1.46 kJ/mol	9.93 ± 0.795 kJ/mol
SMKPGQTVTFNVMIRMKDPNMTAQEFAEEAADEIAENFPPGVKIEIKVDDIEPDPPNGEVYFMVKITITVSA [r9_706_TrROS]	16.7 ± 0.544 kJ/mol	14 ± 0.962 kJ/mol	10.6 ± 0.711 kJ/mol
